# Measured values: US20160263155A1, “T CELL RECEPTORS DIRECTED AGAINST THE PREFERENTIALLY EXPRESSED ANTIGEN OF MELANOMA AND USES THEREOF” (LEIDEN UNIVERSITY MEDICAL CENTER, priority 2015, published 2016)
# T1: PRAME peptide on HLA-A*02:01 (human)
# T1 peptide: SLLQHLIGL
# Test system: chimeric Caspase-9 polypeptide
# Assay: Caspase mutant classes and basal activity (Table 3)
# Format: cell-based, human
# Settings: class heading of Table 3
# Chain of chimeric Caspase-9 polypeptide (as listed by the source, change not shown): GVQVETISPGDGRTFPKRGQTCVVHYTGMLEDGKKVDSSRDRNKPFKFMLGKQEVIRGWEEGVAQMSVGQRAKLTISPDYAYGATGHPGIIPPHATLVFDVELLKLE
row,Molecule,Basal Activity
1,G402Y (protein) GFGDVGALESLRGNADLAYILSMEPCGHCLIINNVNFCRESGLRTRTGSNIDCEKLRRRFSSLHFMVEVKGDLTAKKMVLALLELAQQDHGALDCCVVVILSHGCQASHLQFPGAVYGTDGCPVSVEKIVNIFNGTSCPSLGGKPKLFFIQACGGEQKDHGFEVASTSPEDESPGSNPEPDATPFQEGLRTFDQLDAISSLPTPSDIFVSYSTFPGFVSWRDPKSGSWYVETLDDIFEQWAHSEDLQSLLLRVANAVSVKGIYKQMPYCFNFLRKKLFFKTS,dead
2,T317S (protein) GFGDVGALESLRGNADLAYILSMEPCGHCLIINNVNFCRESGLRTRTGSNIDCEKLRRRFSSLHFMVEVKGDLTAKKMVLALLELAQQDHGALDCCVVVILSHGCQASHLQFPGAVYGTDGCPVSVEKIVNIFNGTSCPSLGGKPKLFFIQACGGEQKDHGFEVASTSPEDESPGSNPEPDASPFQEGLRTFDQLDAISSLPTPSDIFVSYSTFPGFVSWRDPKSGSWYVETLDDIFEQWAHSEDLQSLLLRVANAVSVKGIYKQMPGCFNFLRKKLFFKTS,Decreased
3,C403P (protein) GFGDVGALESLRGNADLAYILSMEPCGHCLIINNVNFCRESGLRTRTGSNIDCEKLRRRFSSLHFMVEVKGDLTAKKMVLALLELAQQDHGALDCCVVVILSHGCQASHLQFPGAVYGTDGCPVSVEKIVNIFNGTSCPSLGGKPKLFFIQACGGEQKDHGFEVASTSPEDESPGSNPEPDATPFQEGLRTFDQLDAISSLPTPSDIFVSYSTFPGFVSWRDPKSGSWYVETLDDIFEQWAHSEDLQSLLLRVANAVSVKGIYKQMPGPFNFLRKKLFFKTS,dead
4,S144D (protein) GFGDVGALEDLRGNADLAYILSMEPCGHCLIINNVNFCRESGLRTRTGSNIDCEKLRRRFSSLHFMVEVKGDLTAKKMVLALLELAQQDHGALDCCVVVILSHGCQASHLQFPGAVYGTDGCPVSVEKIVNIFNGTSCPSLGGKPKLFFIQACGGEQKDHGFEVASTSPEDESPGSNPEPDATPFQEGLRTFDQLDAISSLPTPSDIFVSYSTFPGFVSWRDPKSGSWYVETLDDIFEQWAHSEDLQSLLLRVANAVSVKGIYKQMPGCFNFLRKKLFFKTS,Decreased
5,S196D (protein) GFGDVGALESLRGNADLAYILSMEPCGHCLIINNVNFCRESGLRTRTGSNIDCEKLRRRFSDLHFMVEVKGDLTAKKMVLALLELAQQDHGALDCCVVVILSHGCQASHLQFPGAVYGTDGCPVSVEKIVNIFNGTSCPSLGGKPKLFFIQACGGEQKDHGFEVASTSPEDESPGSNPEPDATPFQEGLRTFDQLDAISSLPTPSDIFVSYSTFPGFVSWRDPKSGSWYVETLDDIFEQWAHSEDLQSLLLRVANAVSVKGIYKQMPGCFNFLRKKLFFKTS,Decreased
6,S144A (protein) GFGDVGALEALRGNADLAYILSMEPCGHCLIINNVNFCRESGLRTRTGSNIDCEKLRRRFSSLHFMVEVKGDLTAKKMVLALLELAQQDHGALDCCVVVILSHGCQASHLQFPGAVYGTDGCPVSVEKIVNIFNGTSCPSLGGKPKLFFIQACGGEQKDHGFEVASTSPEDESPGSNPEPDATPFQEGLRTFDQLDAISSLPTPSDIFVSYSTFPGFVSWRDPKSGSWYVETLDDIFEQWAHSEDLQSLLLRVANAVSVKGIYKQMPGCFNFLRKKLFFKTS,Decreased

# Target: T1, PRAME peptide on HLA-A*02:01
# Assay: multimer staining
# Settings: not given
row,Molecule,binding result
1,"AAV54 SLL (TCR, V domains shown) Valpha: AQSVTQLGSHVSVSERALVLLRCNYSSSVPPYLFWYVQYPNQGLQLLLKYTSAATLVKGINGFEAEFKKSETSFHLTKPSAHMSDAAEYFCAVSGQTGANNLFFGTGTRLTVIP Vbeta: DSGVTQTPKHLITATGQRVTLRCSPRSGDLSVYWYQQSLDQGLQFLIQYYNGEERAKGNILERFSAQQFPDLHSELNLSSLELGDSALYFCASARWDRGGEQYFGPGTRLTVT",recognises
2,"AAV46 SLL (TCR, V domains shown) Valpha: GQQLNQSPQSMFIQEGEDVSMNCTSSSIFNTWLWYKQDPGEGPVLLIALYKAGELTSNGRLTAQFGITRKDSFLNISASIPSDVGIYFCAGIPRDNYGQNFVFGPGTRLSVLP Vbeta: DVKVTQSSRYLVKRTGEKVFLECVQDMDHENMFWYRQDPGLGLRLIYFSYDVKMKEKGDIPEGYSVSREKKERFSLILESASTNQTSMYLCASTPWLAGGNEQFFGPGTRLTVL",recognises
